T1: E. coli Trigger Factor (TF), full length (E. coli, UniProt P0A850 1-432)
T1 sequence (looked up): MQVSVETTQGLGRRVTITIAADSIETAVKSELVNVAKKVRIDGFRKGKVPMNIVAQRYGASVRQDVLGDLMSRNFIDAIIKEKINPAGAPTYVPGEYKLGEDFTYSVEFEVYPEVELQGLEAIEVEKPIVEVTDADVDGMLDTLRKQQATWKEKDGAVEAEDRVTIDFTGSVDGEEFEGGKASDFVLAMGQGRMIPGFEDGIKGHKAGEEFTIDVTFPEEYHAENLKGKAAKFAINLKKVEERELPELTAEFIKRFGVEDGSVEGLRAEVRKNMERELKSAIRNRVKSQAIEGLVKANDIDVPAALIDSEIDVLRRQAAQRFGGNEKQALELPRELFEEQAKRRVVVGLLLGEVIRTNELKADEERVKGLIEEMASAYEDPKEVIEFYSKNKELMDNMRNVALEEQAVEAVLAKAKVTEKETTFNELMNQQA


Assays:
[1] = biological target: T1, E. coli Trigger Factor (TF), full length; test: ITC
[2] = biological target: T1, E. coli Trigger Factor (TF), full length; test: NMR titration
[3] = biological target: T1, E. coli Trigger Factor (TF), full length; test: ITC + NMR titration

Row | Binder | Kd [1] [µM] | stoichiometry N [2] [TF per PhoA^a-c] | Kd [3] [µM]
1 | PhoA site b (independent fragment) (domain or fragment) TPEMPVLENRAAQGDITAPGGARRLTGDQTAALRDSLSDKPAKNIILLIGDGMGDS |  |  | ~200
2 | PhoA^f-g (PhoA fragment with TF-binding sites f and g) (domain or fragment, E. coli) QIGETVDLDEAVQRALEFAKKEGNTLVIVTADHAHASQIVAPDTKAPGLTQALNTKDGAVMVMSYGNSEEDSQEHTGSQLRIAAYGPHAANVVGLTDQTDLFYTMKAALGLK | ~14 |  | 

Continued by falling Kd [1], values first:

Row | Kd [1] [µM] | stoichiometry N [2] [TF per PhoA^a-c] | Kd [3] [µM] | Binder
3 | ~4 |  |  | PhoA^d-e (PhoA fragment with TF-binding sites d and e) (domain or fragment, E. coli) ARADVTLGGGAKTFAETATAGEWQGKTLREQAQARGYQLVSDAASLNSVTEANQQKPLLGLFADGNMPVRWLGPKATYHGNIDKPAVTCTP
4 | ~2 | 1 |  | PhoA^a-c (PhoA fragment with TF-binding sites a to c) (domain or fragment, E. coli, UniProt P00634 1-150, looked up) MKQSTIALALLPLLFTPVTKARTPEMPVLENRAAQGDITAPGGARRLTGDQTAALRDSLSDKPAKNIILLIGDGMGDSEITAARNYAEGAGGFFKGIDALPLTGQYTHYALNKKTGKPDYVTDSAASATAWSTGVKTYNGALGVDIHEKD
